Reference: the nanobody polyreactivity screen of Harvey et al. (2022)

Assay: yeast display, Sf9 membrane polyspecificity reagent, FACS + sequencing; frameworks hold sequencing errors
Procedure, shortened: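 After 36–48 hours of galactose induction, yeast (Saccharomyces cerevisiae BJ5465) displaying a synthetic nanobody library were stained at 4 °C for 1 hour with 10% biotinylated, detergent-solubilized Sf9 membrane reagent. Streptavidin microbeads enriched the stained cells before FACS sorting into low and high (top ~1%) gates on anti-HA and streptavidin fluorescence. Each clone's polyreactivity label reflects its gate of origin.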

In the case of “QVQLVESGGGLVQAGGSLRLSCAASGRTFYRNAMGWYRQATGKEREFVAVISVSGGSTYYADSVKGRFTISRDYAKNTVYLQMNSLKPEDTAVYYCGKRGPVRKTAYEYWGQGTQVTVSS”, the “polyreactivity (PSR sort gate)” value is reported as “low polyreactivity”.
With “QVQLVESGGGLVQAGGSVRLSCAASGRIFGIYAMGWYRQAPGKERELVAAITWIGGRTYYADSVKGRFTISRDNAKNTVYLQMNSLKPEDTAVYYCNAVYTQRFATYRRYDYWGQGTQVTVSS” the “polyreactivity (PSR sort gate)” value was “high polyreactivity”.
In the case of “QVQLVESGGGLVQAGGSLRLSCAASGRIFPINAMGWYRQAPGKERELVAAISGDGGDTYYADSVKGRFTISRDNAKNTVYLQMNSLKPEDTAVYYCAADALGYDYYYWGQGTQVTVSS”, the “polyreactivity (PSR sort gate)” value is reported as “low polyreactivity”.
With “QVQLVESGGGLVQAGGSLRLSCAASGLIFSTYAMGWYRQAPGKERELVAAINSGGGNTYYADSVKGRFTISRDNAKNTVYLQMNSLKPEDTAVYYCNAQWRRHPGIWHYGYWGQGTQVTVSS” the “polyreactivity (PSR sort gate)” value was “low polyreactivity”.
For “QVQLEESGGGLVQAGGSLRLSCAASGSILVRYAMGWYRQAPGKERELVAAITYSVGSTYYADSVKGRFTISRDNAKNTVYLQMNSLKPEDTAVYYCAASGGTEVLLMDYWGQGTQVTVSS”, the “polyreactivity (PSR sort gate)” value was “low polyreactivity”.
For “QVQLVESGGGLVQAGGSLRLSCAASGSTFLYYTMGWYRPAPGKERELVAAITSGGDTNYPDSVKGRFTISRDNAKNTVYLQMNSLKPEDTAVYYCNAEYTLSGTKIYTYKYDYRGQGTQVTVSS”, the “polyreactivity (PSR sort gate)” value was “low polyreactivity”.
For “QVQLVESGGGLVQAGGSLRLSCAASGITFGGNAMGWYRQAPGKEMELVAAISWNGGRTYYADSVKGRFTISRDNAKNTVYLQMNSLKPEDTAVYYCNTPVFSKSSRKYYYWGQGTQVTVSS”, the “polyreactivity (PSR sort gate)” value was “high polyreactivity”.
In the case of “QVQLVESGGGLVQAGGSLRLSCAASGSTFAPNTMGWYRQAPGKERELVARITSSDGSTTYADSVKGRFTISRDNAKNTVYLQMNSLKPEDTAVYYCAADYGRRWGYDYWGQGTQVTVSS”, the “polyreactivity (PSR sort gate)” value is reported as “low polyreactivity”.
In the case of “QVQLVESGGGLVQAGGSLRLSCAASGIIFPGYAMGWYRQAPGKERELVAAISSGGDTYYADSVKGRFTISRDNAKNTVYLQMNSLKPEDTAVYYCAAEYGLYAPGYYYWGQGTQVTVSS”, the “polyreactivity (PSR sort gate)” value is reported as “low polyreactivity”.
With “QVQLQESGGGLVQGGGSLRLSCAASGSIYRYWYMGWYRQAPGKERELVASITEGATTNYAYSVKAALPLAAITRNTVYLQMDSMKPEDTAVYYRAASFGSTYDLVYWGQGTQVTVSS” the “polyreactivity (PSR sort gate)” value was “high polyreactivity”.
In the case of “QVQLVESGGGLVQAGGSLRLSCAASGSIFVSNVMGWYRQSPGKERELVAAISSSGGRTNYADSVKGRFTISRDNAKNTVYLQMNSLKPEDTAVYYCAKAGRYANLPYGYWGQGTQVTVSS”, the “polyreactivity (PSR sort gate)” value is reported as “high polyreactivity”.
With “QVQLVESGGGLVQAGGSLRLSCAASGNTFEYYVMGWYRQAPGKERELVAAITWSTGSTYYADSVKGRFTISRDNAKNTVYLQMNSLKPEDTAVYYCNAAYVYYYPHYRYAPTAVDYDYWGQGTQVTVSS” the “polyreactivity (PSR sort gate)” value was “low polyreactivity”.
In the case of “QVPLVESGGGLVQAGGSLRLSCAAYGFTFWTYAMGWYRQAPGKDRELVAAISRSAGRTYYADSVKGRFTISRDNAKNTVYLQMNSLKPEVSAVYYCNARAGYERYGYWGQGSQVTVSS”, the “polyreactivity (PSR sort gate)” value is reported as “high polyreactivity”.
With “QVQLVESGGGLVQAGGSLRLSCAASGSIFDYNTMGWYRQAPGKERELVATISWSGDSTYYADSVKGRFTISRDNAKNTVYLQMNSLKPEDTAVYYCAKTAPPERYSAWRYSWGQGTQVTVSS” the “polyreactivity (PSR sort gate)” value was “low polyreactivity”.
In the case of “QVQLVESGGGLVQAGGSLRLSSAASGRTFGYNAMGWYRPATGKERELVAAISWSGARTYYADSVKGRFTISRDIAKNTVYLQLNSLTPEDTAVYYCAAGIDGYYWPFFRNYDYWGQGTQVTVSS”, the “polyreactivity (PSR sort gate)” value is reported as “high polyreactivity”.
For “QVQLVESGGGLVQAGGSLRLSCAASGFIYNTKGWYRQAPGKERELVAAISRSGGSTDYADSVKGRFTISRDNAKNTVYLQMTSLKPEDTAVYYCAARRPYRDGYDYWGQGTQVTVSS”, the “polyreactivity (PSR sort gate)” value was “high polyreactivity”.
For “QVQLVESGGGLVQAGGSLRLSSAASGRTFGRYAMGWYRQAPGKERELVAAITRSGSSTYYADSVKGRFTISRDNAKNTVYLQMNSLKPEDTAVYYCAALYGPFYSTGEYWGQGTQVTVSS”, the “polyreactivity (PSR sort gate)” value was “high polyreactivity”.
In the case of “QVQLVESGGGLVQAGGSLRLSCAASGSTFINYAMGWYRQAPGKERELVATISSNGGSTYYADSVKGRFTISRDNAKNTVYLQMNRLKPEDTAVYYCAADGKQYGFYYWGQGTQVTVSS”, the “polyreactivity (PSR sort gate)” value is reported as “low polyreactivity”.
In the case of “QVQLVESGGGLVQAGGSLRLSCAASGLIFGWYAMGWYRQAPGKERELVASISRSGGSTYYADSVKGRFTISRDNAKNTVYLQMNSLKPEDTAVYYCAALYYGFRLTYGYDYWGQGTQVTVSS”, the “polyreactivity (PSR sort gate)” value is reported as “high polyreactivity”.
For “QVQLVESGGGLVQAGGSLRISCAASGLTFQYNAMGWYRQAPGKERELVAAISSSGGSTYYADSVKGRFTISRDNAKNTVYLQMNSLKPEDTAVYYCNAYSQSWNFYGDGDYWVQGTQVTVSS”, the “polyreactivity (PSR sort gate)” value was “low polyreactivity”.
In the case of “QVQLVESGGGLVQAGGSLRLSFAASGLIVTGYAMGWYRQRPGKEREVVAAITSGGGTNYADSVKGRFTISRDNAKNTVDLQMNSLKPEDTAVYYCAVDFGHYYLYSITSYLWYWDGYDYWGQGTQVTVSS”, the “polyreactivity (PSR sort gate)” value is reported as “low polyreactivity”.
In the case of “QVQLVESGGGLVQAGGSLRLSCAASGFIFGSYAMGWYRQAPGKERELVAAISDSGDSTYYADSVKGRYTISRDNAKNTVYLQMNSLKPEDTAVYYCNRGYRWRRCENYYWGQGTQVTVSS”, the “polyreactivity (PSR sort gate)” value is reported as “high polyreactivity”.
In the case of “QVQLVESGGGLVQAGGSLRLSWAASGNTFYGYAMGWYRQAPGKERELVAGIRWSGGSTSYADSVKGRFTISRDNAKNTVYLQMNSLKTEDTAVYYCAAGWYPWGYYSGYISYEYWGQGTQVTVSS”, the “polyreactivity (PSR sort gate)” value is reported as “high polyreactivity”.
In the case of “QVQLVESGGGLVQAGGSLRLSCAASGRILGRYAMGWYRQAPGKERELVAAISGSGTSTYYADSVKGRFTISRDNAKNTVYLQMNSLKPEDTAVYYCAAKWITRRGGDFDYWGQGTQVTVSS”, the “polyreactivity (PSR sort gate)” value is reported as “high polyreactivity”.
For “QVQHVESGGGLVQAGGSLRLSCAASGRIFTYYTMGWYRPAPGKEREFVAAISWSGTSTYYADSVKGRFRISRDNAKNTVYLQMKSLKPEDTAVYSCAARNWYSRYDYWGQGTQVTVSS”, the “polyreactivity (PSR sort gate)” value was “high polyreactivity”.
With “QVQLEESGGGLVQAGGSLRLSCAASGSICYYYARGWYRQAPGKERELVASITSGGRTYYADSVKGRFTISRDNAKNTVYLQMNSLKPEDTAVYYCAAQRIWLGDYWGQGTQVTVSS” the “polyreactivity (PSR sort gate)” value was “high polyreactivity”.
In the case of “QVQLVESGGGLVQAGGSLRLSCAASGRTFRYYTMGWYRPAPGKEREFVAAISSTGGTYYADSVKGRFTISRDNAKNTVYLQMNSLKPEDTAVYYCAATFIQVVVNVQLYDYDYWGQGTQVTVSS”, the “polyreactivity (PSR sort gate)” value is reported as “low polyreactivity”.
With “QVQLVESGVGLVQAGGSLRLICAASGRTFYWYAMGWYRQAPRKERELVATITRGGRTYYADSVKGRFTISRDNAKNTVYLQMNSLKPEDTAVYDCATVSIAGPRYDYWGQGTQVTVSS” the “polyreactivity (PSR sort gate)” value was “high polyreactivity”.
With “QVQLVESGGGLVQAGGSLRLSCAPSGRTFGYNVMGWYRQAPGKERELVAAISYSGGSTYYADSVKGRFTISRDNAKNTVYLQMNSLKPEDTAVYYCAATVLSWYGDYPVYYWGQGTQVTVSS” the “polyreactivity (PSR sort gate)” value was “low polyreactivity”.
For “QVQLVESGGGLVQAGGSLRLSCPASGSIFGSYAMGWYRQAPGKERELVASITRVDSTNYADSVKGRFTISRDNAKNTVYLQMNRLKPEDTAVYYCNAGKTIDYRDGVGYDHWGQGTQVTVSS”, the “polyreactivity (PSR sort gate)” value was “low polyreactivity”.
In the case of “QVQLVESGGGLVQAGGSLRLSCAASGSSFTRYAMGWYRQAPGKERELVATINFSGDRTYYADSVKGRFTISRDNAKNTVYLQMNSLKPEDTAVYYCNNYSYQWPYRRFDYWGQGTLVTVSS”, the “polyreactivity (PSR sort gate)” value is reported as “high polyreactivity”.
With “QVQLEESGGGLVQAGGSLRLSCAASGRTYRYAMGWYRQSPGKERELVAAIRWSGGSTYYADSVKGRFTISRDNAKNTVYLQMNSLKPEDTAVYYCAADSYATRYYYWGQGTQVTVSS” the “polyreactivity (PSR sort gate)” value was “high polyreactivity”.
With “QVQLVESGGGLVQAGGSLRLSCAASGFIFPSNVMGWYRQATGKERELVAAISTRGGRTYYADSVKGRFTISRDNAKNTVYLQMNSLKPEDTAVYYCAASISRQGGVGYWGQGTQVTVSS” the “polyreactivity (PSR sort gate)” value was “high polyreactivity”.
For “QVQLVESGRGLVHAGGSLLLSCAASGSTFGWYAMGRFIQARGKEREFVAAISWSGTSTYYADSVKGRFTISRDNAKNTFDLQMNSLKPEDTAVYYCASRWVVFTEREDYWGQGTQVTVSS”, the “polyreactivity (PSR sort gate)” value was “low polyreactivity”.
In the case of “QVQLVESGGGLVQAGGSLRLSCAASGRIFAGYTMGWYRQAPGKERELVAAISWSGGRTYYADSVKGRFTISRDNAKYTVYLQMNSLKPEDTAVYYCNKVGWYHNYYYWGQGTQVTVSS”, the “polyreactivity (PSR sort gate)” value is reported as “high polyreactivity”.
In the case of “QVQLVESGGGLVQAGGSLRLSCAASGFILKYYAMGWYRQAPGKERELVAAISSSGGRTYYADSVKGRFTISRDNAKNTVYLQMNSLKPEDTAVYYCAARVIASRGRYGYWGQGTQVTVSS”, the “polyreactivity (PSR sort gate)” value is reported as “high polyreactivity”.
For “QVQLVESGGGLVQAGGSLRLICAASGGIIYYYAMGWYRQAPGKERELVAGITSAGSTYYADSVKGRFTISRDNAKNTVYLQMNSLKPEDTAVYYCKDAWPGYYWYYDDDYWGQGTQVTVSS”, the “polyreactivity (PSR sort gate)” value was “low polyreactivity”.
For “QVQLVESGGGLVQAGGSLRLSCAASGSTFGTYAMGWYRQAPGKERELVAAITSGGSTDYADSVKGRFTISRDNAKNTVYLQMNSLKPEDTAVYYCNATWELLSYYYLFWGYDYWGQGTQVTVSS”, the “polyreactivity (PSR sort gate)” value was “low polyreactivity”.
For “QVQLVESGGGLVQAGGSLRLSCAASGFIFRYYAMGWYRQAPGKERELVAAINTGGTTYYADSVKGRFTISRDNAKNTVYLQMNSLKPEDTAVYYCATDGSPGYDWGQGTQVTVSS”, the “polyreactivity (PSR sort gate)” value was “high polyreactivity”.
For “QVQHVESGGGLVQAGGSLRLTCAATGFTFEKNAMGWYRQAPGKERELVAAISRGGSTYADSVKGRFTISRDNAKNTVYLQMNSLKPEDTAVYYCAADTVYIFSSAINGEFVFWGQGTQVTVSS”, the “polyreactivity (PSR sort gate)” value was “low polyreactivity”.
With “QDQLVESGGGFVQAGGSLRLSCAASGSIFLINAMGWYRQAPGKERELVAAISWRGGTTYYADSVKGRFTISRDNAKNSVYLQLNSLKPEDTAVYYCAAYGGRFRGPTRYDYWVQGTQVTVSS” the “polyreactivity (PSR sort gate)” value was “high polyreactivity”.
For “QVQLEDSGGGLVQAGGSLRLSCAASGGIFLTYTMGWYRQAPGKEREFVAAIRSSSGRTYYADSVKGRFTISRDNAKNTVYLQMISLKPEDTSVYYCNAKYYGYRVGKYYPFGYWGQGTQVTVSS”, the “polyreactivity (PSR sort gate)” value was “high polyreactivity”.
In the case of “QVQLVESGGGLVQAGGSLRLSCAASGRTFPINTMGWYRQAPGKEREFVAAITLGGRTYYADSVKGRFTISRDNAKNTVYLQMNSLKPEDTAVYYCNARTYVRRPLGYWGQGTQVTVSS”, the “polyreactivity (PSR sort gate)” value is reported as “high polyreactivity”.
